Data on 83 variants can be found in the RNAGym collection of RNA variant scans (doi:10.1093/molbev/msab373).

B1: Azoarcus group I ribozyme (parent)
chain: GUGCCUUGCGCCGGGAAACCACGCAAGGGAUGGUGUCAAAUUCGGCGAAACCUAAGCGCCCGCCCGGGCGUAUGGCAACGCCGAGCCAAGCUUCGGCGCCUGCGCCGAUGAAGGUGUAGAGACUAGACGGCACCCACCUAAGGCAAACGCUAUGGUGAAGGCAUAGUCCAGGGAGUGGCGAAAGUCACACAAACCGG

In the series the parent is B1. Description: reverse-splicing fitness (ratio to wild type); higher = more active; in vitro selection; Mg2+ level not given. The gist of the method:
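An in vitro group I ribozyme library with randomized positions was T7-transcribed and gel-purified. In triplicate, 10 pmol RNA in EPPS pH 7.5 was reacted with 50 pmoles of a 30-nt RNA substrate for 1 h at 37 °C across several added MgCl2 levels (1–48 mM), then stopped with EDTA. Products were reverse transcribed from a substrate-complementary primer, PCR-amplified and sequenced (HiSeq 4000). Fitness is a variant's read proportion after selection over that before, normalised to wild type.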
Turning to C82U A111G A120G, the reverse-splicing fitness is 0.0173. With C82U A111G A120G A145U C150A U176G, the reverse-splicing fitness came to 0.00406. In the case of C82U A111G A120G A145U C150A U176C, the reverse-splicing fitness amounted to 0.013. On to C82U A111G A120G A145U C150A U176A, for which the reverse-splicing fitness was 0.00974. Take C82U A111G A120G A145U C150G: the reverse-splicing fitness was determined as 0.00645. With C82U A111G A120G A145U C150U the figure was 0.0126; with C82U A111G A120G A145U C150A, 0.00726.

Turning to C82U A111G A120G A145C U176C, the reverse-splicing fitness is 0.00983. For the variant C82U A111G A120G A145C U176A, the reverse-splicing fitness was 0.0105. With C82U A111G A120G A145C U176G the figure was 0.00368.

In the case of C82U A111G A120G A145U C169A U176C, the reverse-splicing fitness turned out to be 0.00896. Turning to C82U A111G A120G A145U C169A U176A, the reverse-splicing fitness is 0.0102.

With C82U A111G A120G A145U C169A U176G, the reverse-splicing fitness was determined as 0.00425.

Turning to C82U A111G A120C C150U C169U U176G, the reverse-splicing fitness is 0.0054.

As to C82U A111G A120C C150U C169U U176C, the reverse-splicing fitness was found to be 0.0151. C82U A111G A120C C150U C169U U176A: the reverse-splicing fitness stood at 0.0154. For the variant C82U A111G A120G A145U C150G C169G U176C, the reverse-splicing fitness is 0.00487.

In the case of C82U A111G A120G A145U C150G C169G U176G, the reverse-splicing fitness stood at 0.00427.

For the variant C82U A111G A120G A145U C150G C169G U176A, the reverse-splicing fitness stood at 0.00667. With C82U A111G A120C C150G U176G, the reverse-splicing fitness came out at 0.00249. Take C82U A111G A120C C150G U176A: the reverse-splicing fitness was 0.00392.

For C82U A111G A120C C150G U176C, the reverse-splicing fitness turned out to be 0.00984. On to C82U A111G A120G A145C C150U U176C, for which the reverse-splicing fitness came out at 0.00908.

Consider C82U A111G A120G A145C C150U U176A, for which the reverse-splicing fitness worked out at 0.0079. Turning to C82U A111G A120G A145C C150U U176G, the reverse-splicing fitness was found to be 0.00386. To C82U A111G A120C A145U U176G belongs 0.00658; to C82U A111G A120C A145U U176C, 0.0251; to C82U A111G A120C A145U U176A, 0.017. Regarding C82U A111G A120C A145U C169U U176A, the reverse-splicing fitness was determined as 0.0139. As to C82U A111G A120C A145U C169U U176G, the reverse-splicing fitness is 0.00307. On to C82U A111G A120C A145U C169U U176C, for which the reverse-splicing fitness was 0.0132.

As to C82U A111G A120G A145G C150G C169U U176A, the reverse-splicing fitness stood at 0.0114. In the case of C82U A111G A120G A145G C150G C169U U176G, the reverse-splicing fitness is 0.00643. With C82U A111G A120G A145G C150G C169U U176C the figure was 0.0105. Regarding C82U A111G A120G A145U C150G C169U U176C, the reverse-splicing fitness is 0.0117.

C82U A111G A120G A145U C150G C169U U176A: the reverse-splicing fitness worked out at 0.0129. For the variant C82U A111G A120G A145U C150G C169U U176G, the reverse-splicing fitness amounted to 0.0048. For the variant C82U A111G A120G A145U C150U C169G, the reverse-splicing fitness was 0.0107.

Take C82U A111G A120G A145U C150U C169A: the reverse-splicing fitness stood at 0.00925. C82U A111G A120G A145U C150U C169U: the reverse-splicing fitness was 0.00963. In the case of C82U A111G A120C C150G, the reverse-splicing fitness stood at 0.00825. On to C82U A111G A120C C150A, for which the reverse-splicing fitness is 0.0113. Regarding C82U A111G A120C C150U, the reverse-splicing fitness came to 0.0325. Take C82U A111G A120G A145G C150G C169A U176G: the reverse-splicing fitness came out at 0.00756. With C82U A111G A120G A145G C150G C169A U176A, the reverse-splicing fitness was found to be 0.0123. For the variant C82U A111G A120G A145G C150G C169A U176C, the reverse-splicing fitness came to 0.0117. Take C82U A111G A120G A145G C150A C169A: the reverse-splicing fitness was 0.00945. For C82U A111G A120G A145G C150A C169G, the reverse-splicing fitness was determined as 0.009. Take C82U A111G A120G A145G C150A C169U: the reverse-splicing fitness stood at 0.00914.

Consider C82U A111G A120C C150A C169U U176C, for which the reverse-splicing fitness turned out to be 0.0177. C82U A111G A120C C150A C169U U176G: the reverse-splicing fitness was found to be 0.00561. On to C82U A111G A120C C150A C169U U176A, for which the reverse-splicing fitness stood at 0.017. On to C82U A111G A120G A145G U176C, for which the reverse-splicing fitness amounted to 0.0192. Turning to C82U A111G A120G A145G U176A, the reverse-splicing fitness is 0.0123.

As for C82U A111G A120G A145G U176G, the reverse-splicing fitness came out at 0.00429. Take C82U A111G A120G A145U C150U U176A: the reverse-splicing fitness amounted to 0.00942. C82U A111G A120G A145U C150U U176G: the reverse-splicing fitness amounted to 0.00411.

On to C82U A111G A120G A145U C150U U176C, for which the reverse-splicing fitness amounted to 0.0124. Turning to C82U A111G A120G A145C C150A C169A U176C, the reverse-splicing fitness was 0.00481. With C82U A111G A120G A145C C150A C169A U176G the figure was 0.00425.

C82U A111G A120G A145C C150A C169A U176A: the reverse-splicing fitness came to 0.0114. In the case of C82U A111G A120G A145U C150A C169U, the reverse-splicing fitness was 0.00646. Take C82U A111G A120G A145U C150A C169G: the reverse-splicing fitness was determined as 0.00754. Consider C82U A111G A120G A145U C150A C169A, for which the reverse-splicing fitness was determined as 0.00822. As for C82U A111G A120C A145U, the reverse-splicing fitness came out at 0.0519.

Regarding C82U A111G A120G A145G C150A C169A U176G, the reverse-splicing fitness came out at 0.00545. To C82U A111G A120G A145G C150A C169A U176A belongs 0.0174.

For C82U A111G A120G A145G C150A C169A U176C, the reverse-splicing fitness is 0.0196. For C82U A111G A120C A145U C150G C169U U176G, the reverse-splicing fitness turned out to be 0.00471. In the case of C82U A111G A120C A145U C150G C169U U176A, the reverse-splicing fitness is 0.00625. Consider C82U A111G A120C A145U C150G C169U U176C, for which the reverse-splicing fitness stood at 0.0124. As to C82U A111G A120C C150G C169A U176C, the reverse-splicing fitness worked out at 0.0113. With C82U A111G A120C C150G C169A U176A the figure was 0.00865; with C82U A111G A120C C150G C169A U176G, 0.00578. For the variant C82U A111G A120G A145U C150A C169G U176A, the reverse-splicing fitness stood at 0.0124. For C82U A111G A120G A145U C150A C169G U176C, the reverse-splicing fitness is 0.0137.

As to C82U A111G A120G A145U C150A C169G U176G, the reverse-splicing fitness came out at 0.00398.

Regarding C82U A111G A120C U176A, the reverse-splicing fitness is 0.0204. As for C82U A111G A120C U176C, the reverse-splicing fitness was 0.0288. With C82U A111G A120C U176G the figure was 0.00542.

For C82U A111G A120C A145U C150A C169A U176C, the reverse-splicing fitness turned out to be 0.00758. As to C82U A111G A120C A145U C150A C169A U176G, the reverse-splicing fitness is 0.00469. For C82U A111G A120C A145U C150A C169A U176A, the reverse-splicing fitness was determined as 0.0128.
